Assay results from US9175313B2, “Three-dimensional structure of isoprene synthase and its use thereof for generating variants” (Danisco US Inc., priority 2009, dated 2015).

Key:
[1] = DMAPP assay of site evaluation library (SEL) lysates with ELISA protein quantitation: specific activity ranked as performance index; format: biochemical; conditions: primary SEL screen; activity on DMAPP per unit weight relative to the parental molecule (parent = 1)
Procedure: 1. Prepared Patch Plates from Glycerol Stock Plates. Using a V&S 96 pin Replication Tool, cultures were patched onto a LB Agar 35 CMP/50 Kan large patch plates from overnight glycerol stock plates. Plates were incubated at 30° C. overnight for 20 to 24 hr. Cultures can be stored at 4° C. for up to a week.
2. Prepared Overnight Growth Plates. 500 mL of LB 35 CMP/50 Kan media were prepared. 300 μL/well of LB 35 CMP/50 Kan media were dispensed into deep 96 well plates (VWR). Using a V&S Replication Tool, the patch inoculum was transferred into deep 96 well plate by touching the tool pins to respective patch and using a circular motion to coat the pins with inoculum. The media was inoculated by dipping the tool then shaking the pin within the well. The overnight growth plates were sealed using a Breathe-Easier Sealing Membrane (Diversified Biotech). The plates were incubated in a Vertiga Shaking Incubator at 30° C. with shaking at 800 rpm overnight for 16 to 18 hr.
3. Prepared Day Growth Plate. Deep 96 well plates were prepared by dispensing 588 μL/well of LB 35 CMP/50 Kan media. Overnight growth plates were removed from the incubator. Overnight cultures were diluted 50-fold and 12 μL of overnight culture were transferred to day growth plates containing 588 μL/well of LB media containing antiobiotics. Overnight growth plates were sealed with new Breathe-Easier Sealing Membranes. Cultures were incubated at 30° C. and 800 rpm for 2.5 hr. Frozen 12 mM IPTG (Sigma) vials were removed from −20° C. and placed in a hood to thaw.
4. OD600 Plate Read of Overnight, Induction, and Harvest. 150 μL 1×PBS were dispensed into 96 well Costar Read Plates (#9017). 50 μL of culture samples were transferred to Read Plates. The OD600 reading was recorded using a Spectramax Plate Reader (Molecular Devices).
5. Induction. Electronic multi-channel pipettors were prepared to dispense 4×20 μL/well of IPTG (if 4× replicates). The multi-dispense option in the electronic pipettor was adjusted if more replicates was necessary. Thawed 12 mM IPTG was poured into 50 mL or 100 mL sterile reservoirs. 20 μL/well of IPTG into each 600 μL/well culture. Overnight growth plates were resealed. Cultures were incubated at 30° C. and 800 rpm for 4 hr. OD600 readings of plates were recorded according instructions above.
6. Harvest. 400 μL of induced culture were transferred to 800 μL Grenier storage plates. Plates were centrifuged at 3300 rpm for 20 min at 2° to 8° C. in a low speed benchtop centrifuge. Supernatants were discarded, pellets should stay in the conical bottom well. Residual supernatants were slapped out onto a paper towel on the benchtop. Plates were sealed with an aluminum foil membrane (Beckman-Coulter). Plates were covered with a plastic plate lid if available. Storage plates were labeled accordingly and stored frozen at −80° C.
Plates containing induced cell pellets were removed from the −80° C. freezer and allowed to thaw on the benchtop for 30 minutes prior to lysis. 200 μl of lysis buffer (50 mM Tris pH 8, 25 mM MgCl2, 74 μg/ml DNase I, 250 U/ml lysozyme, 0.1% Tween 20, 0.5 mM PMSF) was added to each pellet, and plates were incubated on an Eppendorf Thermomixer at 25° C. for 30 minutes at 1200 rpm. After lysis, plates were centrifuged at 3450 rpm for 15 minutes at 4° C. Supernatants were then removed and diluted 10-fold prior to DMAPP assay. 80 μl of the diluted supernatant was added to 20 μl of the DMAPP working stock (20 mM DMAPP in 0.1 M Phosphate Buffer pH 8.2, DMAPP triammonium salt, Cayman chemicals) in a Zinsser glass block. Blocks were then sealed with aluminum sealing membranes, and incubated in Thermomixers at 25° C. for 30 minutes at 450 rpm. Reactions were stopped by incubating blocks on Thermomixers at 70° C. for 12 minutes at 450 rpm. GC-MS was then used for headspace measurements to calculate the amount of isoprene produced by each lysates.
Headspace Assay. […]

[2] = Specific activity measurement of purified isoprene synthase variants (4 mM DMAPP, 30 C, GC-MS headspace); format: biochemical; conditions: 50 mM NaCl, 50 mM Tris pH = 8, 30° C.; for Variant S.A./WT S.A.: ratio to WT
Procedure: 1. Initial Purification—Resuspend the pellet in 3 ml of fresh lysis buffer. Break cells by passing them through the French Press using the small cylinder. Centrifuge samples for 1 hour at 30,000×G and collect the supernatant. Retain pellet in order to test for presence of insoluble protein. Pre equilibrate 0.5 mL Ni Sepharose 6 Fast Flow resin (Amersham) in a 20 ml disposable column with 10 mL of Ni wash buffer. Add protein to column and shake for 60 min at 4 C to bind protein. Elute protein with 2.5 mL Ni elution buffer.
2. Buffer Exchange—Equilibrate a PD-10 column (GE Healthcare) with 25 mL of PD-10 buffer. Load protein on to column and elute with 3.5 mL of PD-10 buffer.
10 uL of purified enzyme was incubated with 4 mM DMAPP, 50 mM MgCl2 in a buffer containing 50 mM Tris and 50 mM NaCl (pH=8) to a final volume of 100 uL for 15 min. at 30 C in gas tight 2 mL vials. Reactions were terminated with the addition of 100 uL of […] EDTA, pH=8. Samples were analyzed by GC-MS to determine the concentration of isoprene in the headspace of the vials. All specific activity measurements were performed in triplicate.
Protein concentration was determined by measuring the absorbance of each protein solution at 280 nm on a Helwlett Pachard 8453 UV-Vis spectrophotometer and converting the absorbance to protein concentration using the extinction coefficient as determined on the Expasy website (Gasteiger E., Hoogland C., Gattiker A., Duvaud S., Wilkins M. R., Appel R. D., Bairoch A.; Protein Identification and Analysis Tools on the ExPASy Server; (In) John M. Walker (ed): The Proteomics Protocols Handbook, Humana Press (2005). pp. 571-607). The protein concentrations of isoprene synthase variants assayed for KM and kcat determination were verified by comparative gel electrophoresis of a dilution series of each protein (FIG. 61).

| Molecule | performance index [1] | S.A. [2] [nmol/mg/min] | Variant S.A./WT S.A. [2] |
| --- | --- | --- | --- |
| D345R: P. alba IspS variant (protein, UniProt Q50L36 38-595, looked up, variant D345R) Isoprene synthase, …: CSVSTENVSFTETETEARRSANYEPNSWDYDYLLSSDTDESIEVYKDKAKKLEAEVRREINNEKAEFLTLLELIDNVQRLGLGYRFESDIRGALDRFVSSGGFDAVTKTSLHGTALSFRLLRQHGFEVSQEAFSGFKDQNGNFLENLKEDIKAILSLYEASFLALEGENILDEAKVFAISHLKELSEEKIGKELAEQVNHALELPLHRRTQRLEAVWSIEAYRKKEDANQVLLELAILDYNMIQSVYQRDLRETSRWWRRVGLATKLHFARDRLIESFYWAVGVAFEPQYSDCRNSVAKMFSFVTIIRDIYDVYGTLDELELFTDAVERWDVNAINDLPDYMKLCFLALYNTINEIAYDNLKDKGENILPYLTKAWADLCNAFLQEAKWLYNKSTPTFDDYFGNAWKSSSGPLQLVFAYFAVVQNIKKEEIENLQKYHDTISRPSHIFRLCNDLASASAEIARGETANSVSCYMRTKGISEELATESVMNLIDETWKKMNKEKLGGSLFAKPFVETAINLARQSHCTYHNGDAHTSPDELTRKRVLSVITEPILPFER | 0.40 | – | – |
| NPC: P. alba MEA A453N L494P T536C (+) TEV; pDW108, SEQ ID NO: 83 (protein, TEV site) MEARRSANYEPNSWDYDYLLSSDTDESIEVYKDKAKKLEAEVRREINNEKAEFLTLLELIDNVQRLGLGYRFESDIRGALDRFVSSGGFDAVTKTSLHGTALSFRLLRQHGFEVSQEAFSGFKDQNGNFLENLKEDIKAILSLYEASFLALEGENILDEAKVFAISHLKELSEEKIGKELAEQVNHALELPLHRRTQRLEAVWSIEAYRKKEDANQVLLELAILDYNMIQSVYQRDLRETSRWWRRVGLATKLHFARDRLIESFYWAVGVAFEPQYSDCRNSVAKMFSFVTIIDDIYDVYGTLDELELFTDAVERWDVNAINDLPDYMKLCFLALYNTINEIAYDNLKDKGENILPYLTKAWADLCNAFLQEAKWLYNKSTPTFDDYFGNAWKSSSGPLQLVFAYFAVVQNIKKEEIENLQKYHDTISRPSHIFRLCNDLASASAEIARGETNNSVSCYMRTKGISEELATESVMNLIDETWKKMNKEKLGGSPFAKPFVETAINLARQSHCTYHNGDAHTSPDELTRKRVLSVICEPILPFERENLYFQGLEHHHHHH | – | 440 ± 20 | 0.9 |
| NSPC: P. alba MEA A453N G491S L494P T536C (+) TEV; pDW109, SEQ ID NO: 85 (protein, TEV site) MEARRSANYEPNSWDYDYLLSSDTDESIEVYKDKAKKLEAEVRREINNEKAEFLTLLELIDNVQRLGLGYRFESDIRGALDRFVSSGGFDAVTKTSLHGTALSFRLLRQHGFEVSQEAFSGFKDQNGNFLENLKEDIKAILSLYEASFLALEGENILDEAKVFAISHLKELSEEKIGKELAEQVNHALELPLHRRTQRLEAVWSIEAYRKKEDANQVLLELAILDYNMIQSVYQRDLRETSRWWRRVGLATKLHFARDRLIESFYWAVGVAFEPQYSDCRNSVAKMFSFVTIIDDIYDVYGTLDELELFTDAVERWDVNAINDLPDYMKLCFLALYNTINEIAYDNLKDKGENILPYLTKAWADLCNAFLQEAKWLYNKSTPTFDDYFGNAWKSSSGPLQLVFAYFAVVQNIKKEEIENLQKYHDTISRPSHIFRLCNDLASASAEIARGETNNSVSCYMRTKGISEELATESVMNLIDETWKKMNKEKLSGSPFAKPFVETAINLARQSHCTYHNGDAHTSPDELTRKRVLSVICEPILPFERENLYFQGLEHHHHHH | – | 502 ± 6 | 1.1 |
| NSC: P. alba MEA A453N G491S T536C (+) TEV; pDW107, SEQ ID NO: 81 (protein, TEV site) MEARRSANYEPNSWDYDYLLSSDTDESIEVYKDKAKKLEAEVRREINNEKAEFLTLLELIDNVQRLGLGYRFESDIRGALDRFVSSGGFDAVTKTSLHGTALSFRLLRQHGFEVSQEAFSGFKDQNGNFLENLKEDIKAILSLYEASFLALEGENILDEAKVFAISHLKELSEEKIGKELAEQVNHALELPLHRRTQRLEAVWSIEAYRKKEDANQVLLELAILDYNMIQSVYQRDLRETSRWWRRVGLATKLHFARDRLIESFYWAVGVAFEPQYSDCRNSVAKMFSFVTIIDDIYDVYGTLDELELFTDAVERWDVNAINDLPDYMKLCFLALYNTINEIAYDNLKDKGENILPYLTKAWADLCNAFLQEAKWLYNKSTPTFDDYFGNAWKSSSGPLQLVFAYFAVVQNIKKEEIENLQKYHDTISRPSHIFRLCNDLASASAEIARGETNNSVSCYMRTKGISEELATESVMNLIDETWKKMNKEKLSGSLFAKPFVETAINLARQSHCTYHNGDAHTSPDELTRKRVLSVICEPILPFERENLYFQGLEHHHHHH | – | 390 ± 20 | 0.8 |
| NSP: P. alba MEA A453N G491S L494P (+) TEV; pDW106, SEQ ID NO: 79 (protein, TEV site) MEARRSANYEPNSWDYDYLLSSDTDESIEVYKDKAKKLEAEVRREINNEKAEFLTLLELIDNVQRLGLGYRFESDIRGALDRFVSSGGFDAVTKTSLHGTALSFRLLRQHGFEVSQEAFSGFKDQNGNFLENLKEDIKAILSLYEASFLALEGENILDEAKVFAISHLKELSEEKIGKELAEQVNHALELPLHRRTQRLEAVWSIEAYRKKEDANQVLLELAILDYNMIQSVYQRDLRETSRWWRRVGLATKLHFARDRLIESFYWAVGVAFEPQYSDCRNSVAKMFSFVTIIDDIYDVYGTLDELELFTDAVERWDVNAINDLPDYMKLCFLALYNTINEIAYDNLKDKGENILPYLTKAWADLCNAFLQEAKWLYNKSTPTFDDYFGNAWKSSSGPLQLVFAYFAVVQNIKKEEIENLQKYHDTISRPSHIFRLCNDLASASAEIARGETNNSVSCYMRTKGISEELATESVMNLIDETWKKMNKEKLSGSPFAKPFVETAINLARQSHCTYHNGDAHTSPDELTRKRVLSVITEPILPFERENLYFQGLEHHHHHH | – | 465 ± 2 | 1.0 |
